Laboratory results reported in article PMC4072508, “Genome-Wide Prediction and Validation of Peptides That Bind Human Prosurvival Bcl-2 Proteins” (PLoS Computational Biology, 2014).

molecular target: Bcl-xL, Q07817; test: peptide SPOT array, c-Myc-tagged receptor at 1 uM or 100 nM, anti-c-Myc-Cy3
Sequence (Q07817 1-209): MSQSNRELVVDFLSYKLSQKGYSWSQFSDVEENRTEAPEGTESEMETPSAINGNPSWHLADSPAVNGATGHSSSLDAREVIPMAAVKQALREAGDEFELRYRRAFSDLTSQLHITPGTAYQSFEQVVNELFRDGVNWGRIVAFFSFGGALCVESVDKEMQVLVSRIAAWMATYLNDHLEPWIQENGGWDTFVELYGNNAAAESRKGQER

Row | Binder | SPOT signal as a fraction of Bim BH3's signal on the same receptor and array
1 | QQMHHNAATADAQRADMLRGLSPRES [NCOR2] | 0.02
2 | CILNSFYGYVDRKGARWYSMEMAGIV [POLE] | 0.09
3 | VEQFSEASQQMAELSEVLVLRLENYE [HAP1] | 0.02
4 | PPDAHVLGKALEAALQDFSLDLRSTG | 0.01
5 | RHFVIRRGQVLREIAEEYGGVMVSFP [HDLBP] | 0.05
6 | HPRRESQVRQLAWILDGVWVSIRLDS | 0.03
7 | DEHISYVATKVCHLLDQLEGVNTPRQ | 0.02
8 | PPDAHVLGKADEAAGQDFSLDLRSTG | 0.01
9 | SVRYYPSGDAFASGSDDATCRLYDLR | 0.02
10 | RGAMLSLATGLAHSGSDLSLLVPEIE [FAM115A] | 0.09
11 | DLSAVTLSREDQAMAEQLAENYHNTW [RYR1] | 0.02
12 | FRFAQLCGLHDVIHADELEELMCYYQ [CLTCL1] | 0.02
13 | CALIAGATLHDAWLGDSQVILVQQGQ | 0.02
14 | IGFFIAFGIAMGKMGDQAKLMVDFFN [SLC1A2] | 0.02
15 | ISDVQVFGYSLRFNADLLRSAVQQVN [DBC1] | 0.02
16 | NKTMTQLSSTLARCAKDILGFAVMFF [PKD2L1] | 0.15
17 | GKPETCTGQDLADLLDRLRDWFQLLH | 0.02
18 | LGLGELAGLTVANEADSLTYDIANNK [STRN] | 0.02
19 | SHALICISHWILGILDRHLNNFMVAM [PRKDC] | 0.03
20 | DEHISYVATKDCHLGDQLEGVNTPRQ | 0.02
21 | SVRYYPSGDADASGSDDATCRLYDLR | 0.01

Row | Binder | SPOT signal as a fraction of Bim BH3's signal on the same receptor and array
22 | AKFLLYLGHSLSTWGDRMWHFAVSVF [SLC40A1] | 0.1
23 | LSPGRSVTAGDIIVGDEILKGHTQDT [FLAD1] | 0.01
24 | VDFYQPTCIVDQCGADSLGCDRLGCF [HDAC3] | 0.01
25 | RVSWNITGTVLASSGDDGCVRLWKAN [SEH1L] | 0.3
26 | HPRKESQVRQDAWVGDGVWVSIRLDS [SPAG9] | 0.02
27 | AFTEREASEIMKSILEAIQYLHSINI [MAPKAPK2] | 0.02
28 | QLSKPGAALYLQSILEGFKEAVQYVL [SOS1] | 0.03
29 | LNAVNYISTVDADWADNVFFLQLQQA | 0.02
30 | CALIAGATLHVAWLGDSQVILVQQGQ | 0.02
31 | GKPETCTGQDLADLGDRLRDWFQLLH | 0.02
32 | EKVLIFGGDILKFAGDALLALWRVER [ADCY10] | 0.04
33 | VILADPDGHEDCFVGDEAFRELSKMD [GLOD4] | 0.01
34 | SRQPRDFGDSDARGGKGFLRGVVGGV [VPS13C] | 0.48
35 | KLPVVGIGKHDCGMATDLALRCLVET [CCDC76] | 0.01
36 | VLSRIEAGRSLKSVADEFGISKSTFY [TIGD7_3eA] | 0.95
37 | RDPQGWVAGNLSARGDGAAGFTLPGF | 0.02
38 | RDPQGWVAGNLSARLDGAAGFTLPGF | 0.02
39 | LNAVNYISTVLADWLDNVFFLQLQQA | 0.02
40 | HPRRESQVRQLAWIGDGVWVSIRLDS | 0.03
41 | CDLLGAKGKDILYILDHIFGDILKSK [NT5C2] | 0.06

Molecular target: T1, Mcl-1, Q07820
T1 chain: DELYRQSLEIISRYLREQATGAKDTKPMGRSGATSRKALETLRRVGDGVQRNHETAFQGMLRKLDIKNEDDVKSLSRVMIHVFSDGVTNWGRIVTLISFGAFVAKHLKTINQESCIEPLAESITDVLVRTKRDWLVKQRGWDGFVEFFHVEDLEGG
Test: as above

Row | Binder | SPOT signal as a fraction of Bim BH3's signal on the same receptor and array
42 | QQMHHNAATADAQRADMLRGLSPRES [NCOR2] | 0.01
43 | CILNSFYGYVDRKGARWYSMEMAGIV [POLE] | 0.1
44 | VEQFSEASQQMAELSEVLVLRLENYE [HAP1] | 0.02
45 | PPDAHVLGKALEAALQDFSLDLRSTG | 0.02
46 | RHFVIRRGQVLREIAEEYGGVMVSFP [HDLBP] | 0.04
47 | HPRRESQVRQLAWILDGVWVSIRLDS | 0.03
48 | DEHISYVATKVCHLLDQLEGVNTPRQ | 0.02
49 | PPDAHVLGKADEAAGQDFSLDLRSTG | 0.01
50 | SVRYYPSGDAFASGSDDATCRLYDLR | 0.02
51 | RGAMLSLATGLAHSGSDLSLLVPEIE [FAM115A] | 0.06
52 | DLSAVTLSREDQAMAEQLAENYHNTW [RYR1] | 0.02
53 | FRFAQLCGLHDVIHADELEELMCYYQ [CLTCL1] | 0.02
54 | CALIAGATLHDAWLGDSQVILVQQGQ | 0.01
55 | IGFFIAFGIAMGKMGDQAKLMVDFFN [SLC1A2] | 0.02
56 | ISDVQVFGYSLRFNADLLRSAVQQVN [DBC1] | 0.02
57 | NKTMTQLSSTLARCAKDILGFAVMFF [PKD2L1] | 0.11
58 | GKPETCTGQDLADLLDRLRDWFQLLH | 0.01
59 | LGLGELAGLTVANEADSLTYDIANNK [STRN] | 0.01
60 | SHALICISHWILGILDRHLNNFMVAM [PRKDC] | 0.02
61 | DEHISYVATKDCHLGDQLEGVNTPRQ | 0.01
62 | SVRYYPSGDADASGSDDATCRLYDLR | 0.01

Row | Binder | SPOT signal as a fraction of Bim BH3's signal on the same receptor and array
63 | AKFLLYLGHSLSTWGDRMWHFAVSVF [SLC40A1] | 0.07
64 | LSPGRSVTAGDIIVGDEILKGHTQDT [FLAD1] | 0.01
65 | VDFYQPTCIVDQCGADSLGCDRLGCF [HDAC3] | 0.01
66 | RVSWNITGTVLASSGDDGCVRLWKAN [SEH1L] | 0.08
67 | HPRKESQVRQDAWVGDGVWVSIRLDS [SPAG9] | 0.02
68 | AFTEREASEIMKSILEAIQYLHSINI [MAPKAPK2] | 0.01
69 | QLSKPGAALYLQSILEGFKEAVQYVL [SOS1] | 0.03
70 | LNAVNYISTVDADWADNVFFLQLQQA | 0.03
71 | CALIAGATLHVAWLGDSQVILVQQGQ | 0.01
72 | GKPETCTGQDLADLGDRLRDWFQLLH | 0.01
73 | EKVLIFGGDILKFAGDALLALWRVER [ADCY10] | 0.02
74 | VILADPDGHEDCFVGDEAFRELSKMD [GLOD4] | 0.01
75 | SRQPRDFGDSDARGGKGFLRGVVGGV [VPS13C] | 0.17
76 | KLPVVGIGKHDCGMATDLALRCLVET [CCDC76] | 0.01
77 | VLSRIEAGRSLKSVADEFGISKSTFY [TIGD7_3eA] | 0.02
78 | RDPQGWVAGNLSARGDGAAGFTLPGF | 0.02
79 | RDPQGWVAGNLSARLDGAAGFTLPGF | 0.02
80 | LNAVNYISTVLADWLDNVFFLQLQQA | 0.03
81 | HPRRESQVRQLAWIGDGVWVSIRLDS | 0.02
82 | CDLLGAKGKDILYILDHIFGDILKSK [NT5C2] | 0.06
